Test results taken from patent US20260232732A1 (FUNDACI INSTITUT DE RECERCA CONTRA LA LEUC MIA JOSEP …, published 2026).
Where no end group is shown, it is not given here. The star is where a group is joined. Biotin = O=C1N[C@H]2[C@H](CS[C@H]2CCCCC(=O)*)N1

Assays:
[1] = molecular target: T1, Peptide 1, non-conjugated (MADDYGSEST-C) (human); assay: ELISA, non-conjugated peptide coated
T1 construct: With the extra C-terminal Cys
T1 peptide: MADDYGSESTC
Procedure: (§1) In brief, plates with each non-conjugated peptide (50 μg/mL) or BSA-conjugated peptide (5 μg/mL) were coated in 0.58M carbonate-bicarbonate buffer pH9.5, 100 μL/well, at 4° C. […] After washing, wells were incubated with the 3, 3′,5,5′-Tetramethylbenzidine (TMB) HRP substrate and reactions were stopped with 2M HCl and OD450 was recorded.

[2] = molecular target: T2, Peptide 2, non-conjugated (GSESTSSMED-C) (human); assay: ELISA, non-conjugated peptide coated
T2 construct: With the extra C-terminal Cys
T2 peptide: GSESTSSMEDC
Procedure: as §1

[3] = molecular target: T1, Peptide 1, non-conjugated (MADDYGSEST-C); assay: ELISA; Ab 0.25 ug/mL; repII
Procedure: as §1

[4] = molecular target: T2, Peptide 2, non-conjugated (GSESTSSMED-C); assay: ELISA; Ab 0.25 ug/mL; repII
Procedure: as §1

[5] = molecular target: T3, BSA (negative control coating) (bovine, UniProt P02769 25-607); assay: ELISA; Ab 0.25 ug/mL; repII
T3 construct: also called Negative control BSA
Procedure: as §1

[6] = molecular target: T4, Peptide 4, non-conjugated (SMEDYVNFNF-C) (human); assay: ELISA; Ab 0.25 ug/mL; repII
T4 construct: With the extra C-terminal Cys
T4 peptide: SMEDYVNFNFC
Procedure: as §1

[7] = molecular target: T5, Peptide 4-BSA (SMEDYVNFNF-C conjugated to BSA) (human); assay: ELISA; Ab 0.25 ug/mL; repII
T5 peptide: SMEDYVNFNFC(BSA)
Procedure: as §1

[8] = molecular target: T6, Peptide 3, non-conjugated (SSMEDYVNFN-C) (human); assay: ELISA; Ab 0.25 ug/mL; repII
T6 construct: With the extra C-terminal Cys
T6 peptide: SSMEDYVNFNC
Procedure: as §1

[9] = molecular target: T7, Peptide 3-BSA (SSMEDYVNFN-C conjugated to BSA) (human); assay: ELISA; Ab 0.25 ug/mL; repII
T7 peptide: SSMEDYVNFNC(BSA)
Procedure: as §1

[10] = molecular target: T8, antigen peptide-BSA (immunisation peptide #1 MADDYGSESTSSMEDYVNFNF-C conjugated to BSA) (human, extra C-terminal Cys conjugated to BSA); assay: ELISA; Ab 0.25 ug/mL; repII
T8 construct: also called Positive control antigen peptide-BSA; MADDY peptide
T8 peptide: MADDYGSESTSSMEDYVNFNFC
Procedure: as §1

[11] = molecular target: T9, Peptide 2-BSA (GSESTSSMED-C conjugated to BSA) (human); assay: ELISA; Ab 0.25 ug/mL; repII
T9 peptide: GSESTSSMEDC(BSA)
Procedure: as §1

[12] = molecular target: T10, Peptide 1-BSA (MADDYGSEST-C conjugated to BSA) (human); assay: ELISA; Ab 0.5 ug/mL; repI
T10 peptide: MADDYGSESTC(BSA)
Procedure: as §1

[13] = molecular target: T1, Peptide 1, non-conjugated (MADDYGSEST-C); assay: ELISA; Ab 0.5 ug/mL; repI
Procedure: as §1

[14] = molecular target: T2, Peptide 2, non-conjugated (GSESTSSMED-C); assay: ELISA; Ab 0.5 ug/mL; repI
Procedure: as §1

[15] = molecular target: T3, BSA (negative control coating); assay: ELISA; Ab 0.5 ug/mL; repI
Procedure: as §1

[16] = molecular target: T4, Peptide 4, non-conjugated (SMEDYVNFNF-C); assay: ELISA; Ab 0.5 ug/mL; repI
Procedure: as §1

[17] = molecular target: T5, Peptide 4-BSA (SMEDYVNFNF-C conjugated …); assay: ELISA; Ab 0.5 ug/mL; repI
Procedure: as §1

[18] = molecular target: T6, Peptide 3, non-conjugated (SSMEDYVNFN-C); assay: ELISA; Ab 0.5 ug/mL; repI
Procedure: as §1

[19] = molecular target: T7, Peptide 3-BSA (SSMEDYVNFN-C conjugated …); assay: ELISA; Ab 0.5 ug/mL; repI
Procedure: as §1

[20] = molecular target: T8, antigen peptide-BSA (immunisation …); assay: ELISA; Ab 0.5 ug/mL; repI
Procedure: as §1

[21] = molecular target: T9, Peptide 2-BSA (GSESTSSMED-C conjugated …); assay: ELISA; Ab 0.5 ug/mL; repI
Procedure: as §1

[22] = molecular target: T11, biotin-peptide MEDYVNFNFT (human); assay: ELISA biotin-peptide; scFv 1.25 ug/mL; repI
T11 peptide: Biotin-MEDYVNFNFT
Procedure: (§2) The peptides were synthesized naked or with a N-terminal Biotin modification with a purity of >98%. All four scFvs were verified by ELISA that can be detected with anti-His antibodies. ELISA was performed for scFv-peptide binding validation. Briefly, naked peptides were coated (50 μg/mL) in 0.58M carbonate-bicarbonate buffer pH9.5, 100 μL/well, 4° C. O/N. Then after blocking (3% BSA-PBS, 300 μL/well 37° C. 1.5 h) and washing (PBS+Tween-20 0.05% v/v (0.05% PBST), wells were incubated with each purified scFv antibody at concentration of 1 μg/mL in PBS at 37° C. 1 h. After washing (0.05% PBST), wells were incubated with secondary antibodies (goat anti-His IgG-HRP) in PBS, 37° C., 30 min. After washing, and incubation with TMB substrate, reactions were stopped with 2M HCl and reading was quantified at OD450.
(§3) ELISA with biotin-conjugated peptides (5 μg/mL) was performed very similar to described above with minor modifications.
(§4) A full curve ELISA was performed for each positive scFv/biotin-peptide pair in order to confirm previous results. Tables 15-17 show ELISA results of the dose-dependent full curve for each positive peptide with scFv “CCR9_HUM”, “Comp-2” and “Comp-3”, respectively.

[23] = molecular target: T12, biotin-peptide SSMEDYVNFN (human); assay: ELISA biotin-peptide; scFv 1.25 ug/mL; repI
T12 peptide: Biotin-SSMEDYVNFN
Procedure: as §2, §3, §4

[24] = molecular target: T13, biotin-peptide SMEDYVNFNF (human); assay: ELISA biotin-peptide; scFv 1.25 ug/mL; repI
T13 peptide: Biotin-SMEDYVNFNF
Procedure: as §2, §3, §4

[25] = molecular target: T14, biotin-peptide TSSMEDYVNF (human); assay: ELISA biotin-peptide; scFv 1.25 ug/mL; repI
T14 peptide: Biotin-TSSMEDYVNF
Procedure: as §2, §3, §4

T3 sequence (P02769 25-607 limits assumed): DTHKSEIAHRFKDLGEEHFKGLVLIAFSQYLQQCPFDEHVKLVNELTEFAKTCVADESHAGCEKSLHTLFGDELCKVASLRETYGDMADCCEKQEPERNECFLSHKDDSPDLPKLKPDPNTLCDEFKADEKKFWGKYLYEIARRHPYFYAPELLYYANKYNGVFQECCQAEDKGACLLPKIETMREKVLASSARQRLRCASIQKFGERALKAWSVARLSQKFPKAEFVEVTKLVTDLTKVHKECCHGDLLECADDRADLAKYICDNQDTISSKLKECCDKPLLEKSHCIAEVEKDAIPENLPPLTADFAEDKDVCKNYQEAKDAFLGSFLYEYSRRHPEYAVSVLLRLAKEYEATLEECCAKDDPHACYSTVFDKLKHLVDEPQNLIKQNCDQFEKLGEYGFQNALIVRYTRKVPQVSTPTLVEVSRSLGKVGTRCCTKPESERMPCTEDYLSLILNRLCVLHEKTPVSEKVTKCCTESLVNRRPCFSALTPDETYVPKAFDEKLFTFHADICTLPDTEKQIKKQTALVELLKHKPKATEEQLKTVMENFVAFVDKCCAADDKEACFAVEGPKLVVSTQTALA

B1: anti-CCR9 antibody clone 115 (murine, from hybridoma #115) (antibody, V domains shown)
VH: QVQLKQSGPELVKPGTSVRVSCTASGYSFTDYIIYWVKQSHGRSLEWIGYIDPNNYNTRYSQKFKGKATLTVDKSSTSAFMHLNSLTSDDSAVYYCARDVYWGQGTTLTVSS
VL: DVVMTQTPLSLTVSLGDQASISCRSSQSLVHSNGKTYLQWYLQKPGQSPKLLIYKVSNRFSGVPDRFSGSGSGTDFTLKISRVEAEDLGVYFCAQSTHVWTFGGGTKLEIKR
notes: Mouse IgG1
binding result [1]: no binding (tested: 1 ug/mL)
binding result [2]: no binding (tested: 1 ug/mL)
OD450 [3]: 0.02 OD
OD450 [4]: 0.01 OD
OD450 [5]: 0.02 OD
OD450 [6]: 2.24 OD
OD450 [7]: 2.53 OD
OD450 [8]: 1.8 OD
OD450 [9]: 2.05 OD
OD450 [10]: 2.42 OD
OD450 [11]: 0.02 OD
OD450 [12]: 0.03 OD
OD450 [13]: 0.01 OD
OD450 [14]: 0.02 OD
OD450 [15]: 0.02 OD
OD450 [16]: 2.29 OD
OD450 [17]: 2.67 OD
OD450 [18]: 1.94 OD
OD450 [19]: 2.03 OD
OD450 [20]: 2.44 OD
OD450 [21]: 0.02 OD

B2: CCR9_HUM2 scFv (humanized anti-CCR9 scFv, SEQ ID NO: 17 with C-terminal 6xHis tag) (scFv)
scFv: QVQLVQSGAEVKKPGASVKVSCTASGYSFTDYIIYWVKQAHGQSLEWMGYIDPNNYNTRYSQKFQGKVTITVDKSSTSAYMELNSLTSDDTAVYYCARDVYWGQGTTVTVSSGGGGSGGGGSGGGGSGGGGSDVVMTQTPLSLSVTPGQPASISCRSSQSLVHSNGKTYLQWYLQKPGQSPKLLIYKVSNRFSGVPDRFSGSGSGTDFTLKISRVEAEDVGVYFCAQSTHVWTFGGGTKVEIKRAHHHHHH
OD450 [22]: 1.54 OD
OD450 [23]: 1.74 OD
OD450 [24]: 1.73 OD
OD450 [25]: 1.18 OD
